The target in test [1] is recombinant biotinylated hAngiopoietin-2 protein (R&D, Cat. No.: BT623B/CF) (human) (UniProt O15123). Briefly: ELISA: biotin Ang2 (R&D BT623B/CF) captured on coated streptavidin (SA), antibody titrated, anti-human IgG-HRP, OD450-OD620, GraphPad fit (fit of a flat control curve).
For test [2] the target is unchanged. Briefly: blocking ELISA: antibody titrated against biotinylated hAng2 (300 ng/ml final); blocked binding to coated hTie2 protein; Avidin-HRP detection (fit of a flat control curve). (In an ELISA, binding on a coated surface is turned into a signal by an enzyme label.)
Test [3] addresses Human ang2 protein (Sino Biological, Cat No.: 10691-H08H) (human) (UniProt O15123). In words: ELISA: human ang2 protein (Sino Biological 10691-H08H) coated at 0.25 ug/ml, antibody titrated, HRP-conjugated secondary antibody, OD450-OD620, GraphPad fit (fit of a flat control curve).
The target of test [4] is recombinant biotinylated hAngiopoietin-2 protein (R&D, Cat. No.: BT623B/CF) (human) (UniProt O15123). In words: blocking ELISA: antibody titrated against biotinylated hAng2 (300 ng/ml final); blocked binding to coated hTie2 protein; Avidin-HRP detection (fit of a flat control curve). This is another data set of the same source.
Test [5] has as its target Cynomolgus monkey Ang2 C-terminal domain (Lys274-Phe495) (cynomolgus monkey). In words: ForteBio BLI, antibody on AHQ sensor, 100 nM antigen, 1:1 model. Background: Biolayer interferometry detects binding as a change in optical thickness at a sensor tip.

pEC50, pIC50, pKd: −log10 of the molar value. Read-outs that look alike come from different tables or passages of the source.

Sequence of recombinant biotinylated hAngiopoietin-2 protein (R&D, Cat. No.: BT623B/CF) (human) (O15123 19-496 limits assumed): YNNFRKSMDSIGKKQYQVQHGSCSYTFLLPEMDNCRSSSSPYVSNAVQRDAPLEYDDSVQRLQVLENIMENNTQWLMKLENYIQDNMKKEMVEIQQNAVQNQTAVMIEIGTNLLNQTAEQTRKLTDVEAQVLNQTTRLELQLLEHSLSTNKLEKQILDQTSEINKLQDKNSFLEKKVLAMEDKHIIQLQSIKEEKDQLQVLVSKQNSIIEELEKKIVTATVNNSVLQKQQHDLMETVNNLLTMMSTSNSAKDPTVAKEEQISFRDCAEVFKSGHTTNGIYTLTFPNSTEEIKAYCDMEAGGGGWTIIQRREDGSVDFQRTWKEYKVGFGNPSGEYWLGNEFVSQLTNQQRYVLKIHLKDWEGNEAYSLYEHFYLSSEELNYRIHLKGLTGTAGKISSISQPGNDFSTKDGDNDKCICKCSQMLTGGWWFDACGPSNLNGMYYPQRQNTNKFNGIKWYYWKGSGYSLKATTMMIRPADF
Sequence of Cynomolgus monkey Ang2 C-terminal domain (Lys274-Phe495) (cynomolgus monkey) (chain, as listed by the source, form in doubt): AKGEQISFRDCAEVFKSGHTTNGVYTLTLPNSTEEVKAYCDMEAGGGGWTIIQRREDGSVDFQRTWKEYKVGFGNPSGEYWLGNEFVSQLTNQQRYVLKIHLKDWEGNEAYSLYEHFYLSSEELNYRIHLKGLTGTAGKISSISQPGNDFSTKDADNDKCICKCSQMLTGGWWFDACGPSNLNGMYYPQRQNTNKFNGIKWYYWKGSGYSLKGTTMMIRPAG
Sequence of Human ang2 protein (Sino Biological, Cat No.: 10691-H08H) (human) (O15123 19-496 limits assumed): as the sequence (O15123 19-496 limits assumed) above

What is called pEC50 is the EC50 on a negative log10 scale, so that one unit is a factor of ten. The pIC50 is the negative decadic logarithm of the IC50, by convention in mol/L. As for IgG (antibody), the pEC50 is 11.09 in test [1] and 7.78 in test [3]. For the same substance, the figures for the pIC50 in test [2] and in test [4] were 7.77 and 7.61, respectively.

For orientation: pKd means the Kd on a negative log10 scale, so that one unit is a factor of ten. Consider Nesvacumab (Regeneron) (antibody), for which the pKd in test [5] is 8.98.
